Target: T1, LGN-TPR:S-tag (human, UniProt P81274 8-311)
T1 construct: LGN, human, NM_013296.4, TPR repeats, amino acids 8-311; also called LGN-TPR with C-terminal S-tag; not shown: S-tag, C-terminal, kept
T1 sequence (looked up): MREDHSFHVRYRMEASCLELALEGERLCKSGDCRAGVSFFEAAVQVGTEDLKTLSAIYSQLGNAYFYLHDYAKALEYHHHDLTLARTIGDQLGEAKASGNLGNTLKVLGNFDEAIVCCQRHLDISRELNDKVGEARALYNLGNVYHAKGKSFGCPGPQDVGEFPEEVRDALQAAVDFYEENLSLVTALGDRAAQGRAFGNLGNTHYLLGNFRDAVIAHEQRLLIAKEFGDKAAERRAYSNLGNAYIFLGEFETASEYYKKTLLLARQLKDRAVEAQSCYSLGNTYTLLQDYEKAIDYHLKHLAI
Assay: pull-down; in vitro competition: E-cad-cyto/LGN-TPR:S-tag complex (GST cleaved off with TEV) held on S-protein agarose by the S-tag; 100 μg NuMA (1808-1988) added, 4 °C overnight; blotted for LGN and E-cadherin
Conditions: both partners purified

B1: region of human NuMA containing the LGN-binding site (domain or fragment, UniProt Q14980-1 1808-1988, looked up)
chain: RRRTTQIINITMTKKLDVEEPDSANSSFYSTRSAPASQASLRATSSTQSLARLGSPDYGNSALLSLPGYRPTTRSSARRSQAGVSSGAPPGRNSFYMGTCQDEPEQLDDWNRIAELQQRNRVCPPHLKTCYPLESRPSLSLGTITDEEMKTGDPQETLRRASMQPIQIAEGTGITTRQQRK
notes: also called NuMA peptide; source: E. coli BL21 (DE3), purified (glutathione agarose, TEV cleavage, MonoQ)
B1: binds.

From article PMC5216124, “Cell division orientation is coupled to cell–cell adhesion by the E-cadherin/LGN complex” (Nature Communications, 2017)
